Measurements taken from US20210032312A1 (Janssen / Centocor, published 2021).

Key:
In house human CD8A-Fc = target: T1, In house human CD8A-Fc (human, UniProt P01732 22-182, limits assumed); assay: SPR (ProteOn), captured hCD8A-Fc
T1 construct: Captured on goat anti-human Fc on a ProteOn GLC chip; also called hCD8A-Fc; recombinant human CD8 alpha; not shown: linker with flag (and polyhistidine) tag and Fc of human IgG1

[1] = target: T2, cynomolgus monkey CD8A on primary cynomolgus monkey CD8+ T cells (cynomolgus monkey, UniProt P01732 23-235 (human entry)); assay: flow cytometry, cyno CD8+ T cells, 2 uM FN3
T2 construct: also called Cyno CD8alpha

[2] = target: T3, human CD8 alpha (CD8A) on primary human CD8+ T cells (human, UniProt P01732 22-235); assay: flow cytometry, human CD8+ T cells, 2 uM FN3
T3 construct: whole, on cells; also called hCD8A

[3] = target: T2, cynomolgus monkey CD8A on primary …; assay: flow cytometry, cyno CD8+ T cells, 0.2 uM FN3
[4] = target: T3, human CD8 alpha (CD8A) on primary human …; assay: flow cytometry, human CD8+ T cells, 0.2 uM FN3

T3 sequence (P01732 22-235): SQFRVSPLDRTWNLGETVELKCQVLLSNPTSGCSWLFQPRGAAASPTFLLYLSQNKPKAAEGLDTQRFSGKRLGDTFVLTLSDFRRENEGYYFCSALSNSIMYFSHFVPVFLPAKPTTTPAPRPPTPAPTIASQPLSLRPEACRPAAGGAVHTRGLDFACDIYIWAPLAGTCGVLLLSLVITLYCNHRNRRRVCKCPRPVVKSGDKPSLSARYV
T1 sequence (P01732 22-182 limits assumed): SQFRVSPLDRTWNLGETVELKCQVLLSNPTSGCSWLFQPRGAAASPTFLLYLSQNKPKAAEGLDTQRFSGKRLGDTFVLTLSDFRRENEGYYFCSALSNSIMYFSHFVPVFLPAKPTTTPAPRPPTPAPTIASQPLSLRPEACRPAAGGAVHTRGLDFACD
T2 sequence (P01732 other isoform, or with tags, fused parts or gaps limits assumed): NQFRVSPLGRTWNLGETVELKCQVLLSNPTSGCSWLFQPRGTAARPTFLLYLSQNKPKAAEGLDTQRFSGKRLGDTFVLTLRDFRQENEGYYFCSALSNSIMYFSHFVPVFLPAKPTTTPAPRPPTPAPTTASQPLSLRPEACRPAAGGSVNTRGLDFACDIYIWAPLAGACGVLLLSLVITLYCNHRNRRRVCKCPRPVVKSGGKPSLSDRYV

Row | Binder | koff (In house human CD8A-Fc) [s⁻¹] | Cyno T-cell Binding 2 uM (MFI) [1] [MFI] | Human T-cell Binding 2 uM (MFI) [2] [MFI] | Cyno T-cell Binding 0.2 uM (MFI) [3] [MFI] | Human T-cell Binding 0.2 uM (MFI) [4] [MFI]
1 | P282ER9P1360_F11 (designed binder, FN3 domain) LPAPKNLVVSRVTEDSARLSWIAPDAAFDSFSIAYVEAELVGEAIQLVVPGSERSYDLTGLKPGTEYWVVILGVKGGNPSNPLGASFTT | 0.000225 | 48700 | 22400 | 4410 | 3860
2 | P282ER9P1360_H3 (designed binder, FN3 domain) LPAPKNLVVSRVTEDSARLSWTAPDAAFDSFSIAYVEAELVGEAIQLVVPGSERSYDLTGLKPGTEYWVVILGVKGGNPSNPLGASFTT | 0.000242 | 66000 | 20000 | 6440 | 4270
3 | P282DR9P1359_G7 (designed binder, FN3 domain) LPAPKNLVVSRVTEDSARLSWTAPDAAFDSFAITYIEKEHIEDGEAIVLTVPGSERSYDLTGLKPGTEYWVPIWGVKGGANSWPLSAIFTT | 0.000114 | 69100 | 37600 | 8770 | 6130
4 | P282ER9P1360_H10 (designed binder, FN3 domain) LPAPKNLVVSRVTEDSARLSWTAPDAAFDSFEIYYPEWPFAGEAIGLPVPGSERSYDLTGLKPGTEYFVVIYGVKGGELSEPLTAQFTT | 0.00104 | 27100 | 2510 | 1890 | 506
5 | P282ER9P1360_G10 (designed binder, FN3 domain) LPAPKNLVVSRVTEDSARLSWTAPDAAFDSFAIWYVEQHPFGEAIPLFVPGSERSYDLTGLKPGTEYTVGIRGVKGGNFSTPLIAHFTT | 0.00207 | 62700 | 27000 | 22600 | 7050
6 | P282FR9P1361_H5 (designed binder, FN3 domain) LPAPKNLVVSRVTEDSARLSWTAPDAAFDSFDIWYAEYGYPGEAIVLTVPGSERSYDLTGLKPGTEYDVAISGVKGGPRSYPLSAIFTT | 0.00577 | 11800 | 5730 | 637 | 698
7 | P282FR9P1361_D3 (designed binder, FN3 domain) LPAPKNLVVSRVTEDSARLSWTAPDAAFDSFDIWYAEYGYPGEAIVLTVPGSERSYDLTGLNPGTEYDVAISGVKGGPRSYPLSAIFTT | 0.00502 | 14800 | 6880 | 764 | 1030
8 | P282FR9P1361_F1 (designed binder, FN3 domain) LPAPKNLVVSRVTEDSARLSWTAPDAAFDSFGIWYAEYGYSGEAIVLTVPGSERSYDLTGLKPGTEYDVAIWGVKGGVRSYPLSAIFTT | 0.00126 | 9870 | 5500 | 1390 | 801
9 | P282FR9P1361_F11 (designed binder, FN3 domain) LPAPKNLVVSRVTEDSARLSWTAPDAAFDSFGIWYREYGGSGEAIVLTVPGSERSYDLTGLKPGTEYDVAIWGVKGGVRSYPLSAIFTT | 0.00213 | 2290 | 2190 | 384 | 382
10 | P282FR9P1361_A3 (designed binder, FN3 domain) LPAPKNLVVSRVTEDSARLSWTAPDAAFDSFDIWYAEYGYPGEAIVLTVPGSERSYDLTGLKPGTEYDVAIVGVKGGNRSYPLSAIFTT | 0.000757 | 8480 | 7670 | 740 | 1660
11 | P282FR9P1361_F3 (designed binder, FN3 domain) LPAPKNLVVSRVTEDSARLSWTAPDAAFDSFDIWYAEYGYPGEAIVLTVPGSERSYDLTGLKPGTEYDVAISGAKGGPRSYPLSAIFTT | 0.0107 | 9710 | 5160 | 513 | 674
12 | P282FR9P1361_C7 (designed binder, FN3 domain) LPAPKNLVVSRVTEDSARLSWTAPDAAFDSFGIWYHEYGGDGEAIVLTVPGSERSYDLTGLKPGTEYDVAIWGVKGGDVSYPLSAIFTT | 0.00224 | 11600 | 8540 | 896 | 1580
13 | P282FR9P1361_F2 (designed binder, FN3 domain) LPAPKNLVVSRVTEDSARLSWTAPDAAFDSFDIWYAEYGYPGEAIVLTVPGSERSYDLTGLKPGTEYDVAISGIKGGPRSYPLSAIFTT | 0.00496 | 10900 | 4610 | 462 | 498
14 | P282ER9P1360_H2 (designed binder, FN3 domain) LPAPKNLVVSRVTEDSARLSWTAPDAAFDSFSIAYVEAELVGEAIQLVVPGSERSYDLTGLKPGTEYWVVILGVKGGNPSNPLGASFTTT | 0.000269 | 44600 | 15200 | 4540 | 3480
15 | P282DR9P1359_H5 (designed binder, FN3 domain) LPAPKNLVVSRVTEDSARLSWTAPDAAFDSFNIAYPEALHPGYGEAIVLTVPGSERSYDLTGLKPGTEYFVVIYGVKGGTNSEPLSAIFTT | 0.00449 | 2250 | 919 | 500 | 278
16 | P282FR9P1361_A5 (designed binder, FN3 domain) LPAPKNLVVSRVTEDSARLSWTAPDAAFDSFGILYYEPVDSGEAITLPVPGSERSYDLTGLKPGTEYWVVITGVKGGAPSTPLGAIFTT | 0.000192 | 63500 | 32800 | 8110 | 5210
17 | P282ER9P1360_E4 (designed binder, FN3 domain) LPAPKNLVVSRVTEDSARLSWTAPDAAFDSFGILYYEPVDSGEAITLPVLGSERSYDLTGLKPGTEYWVVITGVKGGAPSTPLGAIFTT | 0.000191 | 60800 | 26900 | 6870 | 5030
18 | P282ER9P1360_D11 (designed binder, FN3 domain) LPAPKNLVVSRVTEDSARLSWTAPDAAFDSFGILYYEPVDSGEAITLPVPGSERSYDLTGLKPGTEYFVIIVGVKGGYPSIPLGAAFTT | 0.000142 | 76600 | 36800 | 1940 | 3210
19 | P282ER9P1360_C1 (designed binder, FN3 domain) LPAPKNLVVSRVTEDSARLSWTTPDAAFDSFGILYYEPVDSGEAITLPVPGSERSYDLTGLKPGTEYWVVITGVKGGAPSTPLGAIFTT | 0.000181 | 64800 | 25900 | 9680 | 6290
20 | P282ER9P1360_C6 (designed binder, FN3 domain) LSAPKNLVVSRVTEDSARLSWTAPDAAFDSFGILYYEPVDSGEAITLPIPGSERSYDLTGLKPGTEYWVVITGVKGGAPSTPLGAIFTT | 0.000175 | 52800 | 25900 | 7580 | 5080
21 | P282ER9P1360_C8 (designed binder, FN3 domain) LPAPKNLVVSRVTEDSARLSWTAPDAAFDSFGILYYEPVDSGEAITLPVPGSERSYDLTGLKPGTEYWVVITGVKGGAPSTPLGTIFTT | 0.000156 | 66800 | 30600 | 10200 | 6010
22 | P282ER9P1360_C4 (designed binder, FN3 domain) LPAPKNLVVSRVTEDSARLSWTAPDAAFDSFGITYYEPNHGGEAISLSVPGSERSYDPTGLKPGTEYWVVITGVKGGAPSTPLGAIFTT | 0.00107 | 33400 | 19200 | 3900 | 3460
23 | P282ER9P1360_G7 (designed binder, FN3 domain) LPAPKNLVVSRVTEDSARLSWTAPDAAFDSFGILYYEPVDSGEAITLPVPGSERSYDLTGLKPGTEYWVVITGVKGGAPSTPLGAILTT | 0.000221 | 69700 | 25400 | 9920 | 5870
24 | P282ER9P1360_A9 (designed binder, FN3 domain) LPAPKNLVVSRVTEDSARLSWTAPDAAFDSFGILYYEPVDSGEAITLPIPGSERSYDLTGLKPGTEYWVVITGVKGGAPSTPLGAIFTT | 0.000133 | 64700 | 23400 | 8730 | 5340
